# Test results published in the RNAGym collection of RNA variant scans (doi:10.1073/pnas.2313332121).
# B1: TPR t1 (parent)
# chain: GACCAAUCUGCCCUCAGAGCUCGAGAACAUCUUCGGAUGCAGAGGAGGCAGGCUUCGGUGGCGCGAUAGCGCCAACGUCCUCAACCUCCAAUGCAUCCCACCACAUGAUGAUGCCUGAAGAGCCUUGGUUUUUUG
# Variants of: B1
# Assay: polymerase ribozyme fitness, log enrichment relative to wild type (log ratio); higher = more active; in vitro selection for triplet polymerase activity
# How it was run: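 Genotype fitness is the logarithm of its enrichment divided by wild-type enrichment, using inverse-variance-weighted averages of replicates. That logarithm is base 2. Enrichment was measured by Illumina sequencing of input and output libraries from one triplicate in vitro selection round, with frozen incubation at −7 °C, on PCR-built, transcribed mutant libraries of each subunit of a heterodimeric triplet polymerase ribozyme, retaining genotypes with ≥10 input reads and ≥1 read per output.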
row,Variant,polymerase ribozyme fitness (log ratio)
1,G42C G44U U112A,-1.44
2,A41U C56U G110A,-2.95
3,A41U G45U C53G U55G G63U,-6.72
4,G42C G77A,-1.99
5,A41U C72U C88U,-1.2
6,G42A G61U A83U,-2.11
7,G42C G113C,-2.1
8,G42A C73A C89G,-2.01
9,G42A A83C U112A,-1.42
10,A41U G52C U87A,-1.57
11,G42C U55A G113U G120U C123U U125A,-3.47
12,G42U C56G,-1.08
13,A41U C97U,-2.14
14,A41U C73G,-3.06
15,A41G G71U A91U,-2.66
16,G42C U106A C115U G120U,-4.34
17,G42A U129G,-2.39
18,G42A G47U G57U G58U,-3.58
19,A41G G42A,-2.57
20,G42C G48C U55C,-1.95
21,G42C U87G,-1.08
22,G42C U87A,-1.23
23,G42A G69U C89G,-0.811
24,G42C U54G C88A C102A,-5.41

row,Variant,polymerase ribozyme fitness (log ratio)
1,G42U A119U,-1.27
2,G42A G63C,-2.96
3,A41U G60U C85A C94U,-1.72
4,A41U A46C A91G U112A,-3.27
5,A41U A43U,-1.37
6,A41G G57C,-0.0815
7,A41U A50U C53A,-3.22
8,G42A U116A,-3.72
9,A41U A43U U54G G93A U106G,-3.16
10,G42A U126G,-3.7
11,A41G G42U C73G C104A,-5.43
12,A41U G120C,-0.366
13,A41U C114G,-2.94
14,A41U C114A,-3.03
15,A41U A111U,-4.55
16,A41U G110A A121C G122A G128U,-5.21
17,G42C A43U C86U U96C,-2.55
18,A41U C80A,-5.17
19,G42A A91G,-2.47
20,G42A G135U,-2.72
21,A41U C49G A83C U133G,-1.44
22,G42C C89G,-1.06
23,G42A G52C,-2.26
24,G42A G45C C123U,-1.9

row,Variant,polymerase ribozyme fitness (log ratio)
1,A41U U125G,-1.97
2,G42A C88A,-1.56
3,G42A C88G,-2.63
4,G42C C102A,-4.06
5,G42C C115U,-2.24
6,G42A G117C,-3.8
7,A41U U92C,-1.21
8,G42U A43C C104U,-0.998
9,G42A C70A C85U,-4.88
10,G42A C72G,-2.43
11,G42A C72A,-1.98
12,G42A G45C C49G U96A,-3.8
13,G42A G48U C56U C114U U131C,-3.37
14,A41G G52A G61C C85U C124A U126C,-5.73
15,A41U G57U C82U,-1.52
16,A41G C86A U87C G113U,-4.97
17,A41U C88G,-2.13
18,A41U C88U,-1.27
19,G42C C49G C72G,-3.71
20,A41U G57C,-1.91
21,A41U C82U A103U G110C G122A,-7.14
22,G42C G47U A108C G110A U112A,-7.49
23,G42A G61A A83U A121U,0.412
24,G42U A68U C123G U130A,-5.54

row,Variant,polymerase ribozyme fitness (log ratio)
1,G42C G48C C79A,-6.14
2,G42A C98U,-2.55
3,G42A C70U G117A,-4.31
4,G42A C64U,-2.45
5,A41G G42C A46C U54A G60U G110A,-4.92
6,G42A C62U A83C U112A,-2.06
7,A41U G58C C62A G117C U126A G128A,-7.88
8,A41U A46U C72U A83C U109A,-7.09
9,G42U C49A C53A U59C C82U,-2.94
10,G42A C85A C94U,-3.73
11,A41U C53U G117C U131A,-5.46
12,G42C G63A G93C G113U,-5.92
13,A41U G71A U92A G127C,-3.79
14,G42C C49A G93C,-3.52
15,A41U G69C G127U,-3.25
16,A41G G110A U125G U130G,-2.05
17,A41G U112A,1.42
18,G42A G44A C62U G63A U112G G120C,-5.64
19,G42U A46U,-1.99
20,A41U U116C C124U U130A,-3.9
21,G42A C49U U112C,-0.387
22,G42A A103U U112A,-7.34
23,G42A G44C A46U G71U A111G G120A,-3.41
24,G42A G44A G47U C64U,-4.22

row,Variant,polymerase ribozyme fitness (log ratio)
1,G42A G44C G47C C97U G120U U130C,-3.09
2,A41G G69U A74U U81A,-1.11
3,G42U A50C A83G C97G C99U U106A G113U C124A,-7.66
4,G42A C82A A91C C115G,-4.43
5,G42A U106A G120U U132A,-2.41
6,G42A G47C C82U A84G,-3.91
7,A41G G61C C94A A111U,-5.2
8,A41U C53G G113C,-3.41
9,A41U U126G,-3.66
10,G42C G61U G120A,-0.458
11,A41G C99U,-3.39
12,G42C G45U U133A,-2.53
13,G42A G77U G120C,-1.93
14,G42A G61C,-3.18
15,G42A G61A,-1.27
16,A41U C56G G71U C79U G117C,-6.29
17,A41G G127C,-0.942
18,G42A A90C U96A G117U,-5.05
19,A41U U129C,-0.914
20,A41U G45C C72A U129C,-2.79
21,G42C G61C,-4.07
22,G42C C56A,-1.76
23,G42C G44A G69C C94U C114A,-5.06
24,G42A G60C C82A,-3.4

row,Variant,polymerase ribozyme fitness (log ratio)
1,G42C C70G,-5.52
2,A41U G63A C124U,-1.14
3,G42C C88G C114G,-4.43
4,G42A C70U U81A G93U,-6.73
5,G42U A91C G117C,-3.63
6,A41U A46U G63U,-3.33
7,A41U C73G A103C,-6.66
8,G42C A50C,-2.31
9,G42C A50U,-3.32
10,A41U C70G G120U,-6.06
11,G42C G61A C124A U125A,0.506
12,G42U C49A G69U,0.552
13,G42C C124A,-0.168
14,A41U C70G,-5.5
15,A41U C70U,-2.3
16,A41G G45A A83C,-1.53
17,A41U G57C C62U,-0.95
18,A41U A46U C115A G120U C123G,-2.25
19,A41U A83U U87G U92A,-0.357
20,G42U C53U U59G C89A C124A,-0.557
21,A41G C104A G113C,-3.19
22,A41U C101U,-1.85
23,G42A G60U,-2.08
24,A41G G69C G117U,-4.65

row,Variant,polymerase ribozyme fitness (log ratio)
1,G42C U55A G71C G113U G120U C123U U125A,-5.08
2,G42C A50U C76G A111U,-6.27
3,A41U A84C,-1.99
4,G42A C89A A108G,-4.56
5,G42U C53G C56A,-1.17
6,A41G G48U A121U,1.04
7,A41U G63A C101A G113A A118U,-4.42
8,G42A U59A,-1.76
9,G42A U54C,-1.78
10,G42A G44A A50C C115A,-4.02
11,G42U A50C C62U A84G C114G,-4.07
12,A41U A74U,-1.31
13,A41U A74C,-4.24
14,G42A C89U G117A,-3.19
15,G42A C94G,-3.05
16,A41U G42C,-2.5
17,G42A A43G C56A A66U A91G U96A U112G,-6.49
18,A41U C56U A75G U78C C82G A118G G120U A121U U129G,-3.43
19,G42C C70A C104U,-4.4
20,G42A C73G C79A U130A,-5.42
21,G42A G48A G69C,-4.05
22,G42A U81C U129G,-4.71
23,G42C C89U C101G,-2.74
